Legend:
HeLa Kyoto [1] = assay: solubility in G1/S (NP-40 vs SDS abundance) (log2 ratio); higher = more soluble; details: cell cycle stage: G1/S
HeLa Kyoto [2] = assay: melting temperature (median over replicates), in situ; higher = more thermally stable
HeLa Kyoto [3] = assay: solubility change mitosis vs G1/S (difference of NP-40 vs SDS log2 ratios) (log2 ratio difference); higher = more soluble in mitosis
HeLa Kyoto [4] = assay: thermal stability score vs G1/S (z-score of summed log2 fold changes over temperatures); higher = more thermally stable than in G1/S
[5] = cell cycle stage: early G1 (4.5 h after nocodazole release)
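Wherever melting temperature (median over replicates), in situ is given: HeLa Kyoto cells synchronized by double thymidine or nocodazole block, proteins quantified by TMT10plex mass spectrometry, three independent biological replicates.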
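Wherever solubility change mitosis vs G1/S (difference of NP-40 vs SDS log2 ratios) is given: synchronized HeLa Kyoto cells (double thymidine block for G1/S, nocodazole release for mitosis), protein amounts in NP-40 versus SDS lysates quantified by mass spectrometry, three biological replicates.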
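Wherever solubility in G1/S (NP-40 vs SDS abundance) is given: HeLa Kyoto cells arrested at G1/S by double thymidine block, proteins quantified by TMT10plex mass spectrometry in mild NP-40 versus SDS extracts, three biological replicates.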
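Wherever thermal stability score vs G1/S (z-score of summed log2 fold changes over temperatures) is given: synchronized HeLa Kyoto cells, proteins quantified by TMT10plex mass spectrometry, three biological replicates, mitosis taken 0.5 h after nocodazole release, G1/S directly after double thymidine block.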

Sequence	solubility in G1/S (log2) (HeLa Kyoto [1])	melting temperature (HeLa Kyoto [2]; cell cycle stage: G1/S) [°C]	melting temperature (HeLa Kyoto [2]; cell cycle stage: mitosis) [°C]	solubility change mitosis (log2) (HeLa Kyoto [3])	thermal stability score (HeLa Kyoto [4]; [5])	thermal stability score (HeLa Kyoto [4]; cell cycle stage: mitosis)
MIASHLLAYFFTELNHDQVQKVDQYLYHMRLSDETLLEISKRFRKEMEKGLGATTHPTAAVKMLPTFVRSTPDGTEHGEFLALDLGGTNFRVLWVKVTDNGLQKVEMENQIYAIPEDIMRGSGTQLFDHIAECLANFMDKLQIKDKKLPLGFTFSFPCHQTKLDESFLVSWTKGFKSSGVEGRDVVALIRKAIQRRGDFDIDIVAVVNDTVGTMMTCGYDDHNCEIGLIVGTGSNACYMEEMRHIDMVEGDEGRMCINMEWGAFGDDGSLNDIRTEFDQEIDMGSLNPGKQLFEKMISGMYMGELVRLILVKMAKEELLFGGKLSPELLNTGRFETKDISDIEGEKDGIRKAREVLMRLGLDPTQEDCVATHRICQIVSTRSASLCAATLAAVLQRIKENKGEERLRSTIGVDGSVYKKHPHFAKRLHKTVRRLVPGCDVRFLRSEDGSGKGAAMVTAVAYRLADQHRARQKTLEHLQLSHDQLLEVKRRMKVEMERGLSKETHASAPVKMLPTYVCATPDGTEKGDFLALDLGGTNFRVLLVRVRNGKWGGVEMHNKIYAIPQEVMHGTGDELFDHIVQCIADFLEYMGMKGVSLPLGFTFSFPCQQNSLDESILLKWTKGFKASGCEGEDVVTLLKEAIHRREEFDLDVVAVVNDTVGTMMTCGFEDPHCEVGLIVGTGSNACYMEEMRNVELVEGEEGRMCVNMEWGAFGDNGCLDDFRTEFDVAVDELSLNPGKQRFEKMISGMYLGEIVRNILIDFTKRGLLFRGRISERLKTRGIFETKFLSQIESDCLALLQVRAILQHLGLESTCDDSIIVKEVCTVVARRAAQLCGAGMAAVVDRIRENRGLDALKVTVGVDGTLYKLHPHFAKVMHETVKDLAPKCDVSFLQSEDGSGKGAALITAVACRIREAGQR [HK2]	-0.166	48.2	49.1	-0.148	1.07	2.33
MICLVLTIFANLFPAACTGAHERTFLAVKPDGVQRRLVGEIVRRFERKGFKLVALKLVQASEELLREHYAELRERPFYGRLVKYMASGPVVAMVWQGLDVVRTSRALIGATNPADAPPGTIRGDFCIEVGKNLIHGSDSVESARREIALWFRADELLCWEDSAGHWLYE [NME3]	-0.213	55.7	56.8	-0.0854	-1.81	-2.22
MIDSSKKQQQGFPEILTAGDFEPLKEKECLEGSNQKSLKEVLQLRLQQRRTREQLVDQGIMPPLKSPAAFHEQIKSLERARTENFLKHKIRSRPDRSELVRMHILEETFAEPSLQATQMKLKRARLADDLNEKIAQRPGPMELVEKNILPVDSSVKEAIIGVGKEDYPHTQGDFSFDEDSSDALSPDQPASQESQGSAASPSEPKVSESPSPVTTNTPAQFASVSPTVPEFLKTPPTADQPPPRPAAPVLPTNTVSSAKPGPALVKQSHPKNPNDKHRSKKCKDPKPRVKKLKYHQYIPPDQKGEKNEPQMDSNYARLLQQQQLFLQLQILSQQKQHYNYQTILPAPFKPLNDKNSNSGNSALNNATPNTPRQNTSTPVRKPGPLPSSLDDLKVSELKTELKLRGLPVSGTKPDLIERLKPYQEVNSSGLAAGGIVAVSSSAIVTSNPEVTVALPVTTLHNTVTSSVSTLKAELPPTGTSNATRVENVHSPLPISPSPSEQSSLSTDDTNMADTFTEIMTMMSPSQFLSSSPLRMTNNEDSLSPTSSTLSNLELDAAEKDRKLQEKEKQIEELKRKLEQEQKLVEVLKMQLEVEKRGQQQRPLEAQPSAPGHSVKSDQKHGSLGSSIKDEASLPDCSSSRQPIPVASHAVGQPVSTGGQTLVAKKAVVIKQEVPVGQAEQQSVVSQFYVSSQGQPPPAVVAQPQALLTTQTAQLLLPVSIQGSSVTSVQLPVGSLKLQTSPQAGMQTQPQIATAAQIPTAALASGLAPTVPQTQDTFPQHVLSQPQQVRKVFTNSASSNTVLPYQRHPAPAVQQPFINKASNSVLQSRNAPLPSLQNGPNTPNKPSSPPPPQQFVVQHSLFGSPVAKTKDPPRYEEAIKQTRSTQAPLPEISNAHSQQMDDLFDILIKSGEISLPIKEEPSPISKMRPVTASITTMPVNTVVSRPPPQVQMAPPVSLEPMGSLSASLENQLEAFLDGTLPSANEIPPLQSSSEDREPFSLIEDLQNDLLSHSGMLDHSHSPMETSETQFAAGTPCLSLDLSDSNLDNMEWLDITMPNSSSGLTPLSTTAPSMFSADFLDPQDLPLPWD [MKL2]	0.208	52.5	53	-0.304	1.45	3.81
MIGCGACEPKVKMAGGQAAAALPTWKMAARRSLSARGRGILQAAAGRLLPLLLLSCCCGAGGCAAVGENEETVIIGLRLEDTNDVSFMEGGALRVSERTRVKLRVYGQNINNETWSRIAFTEHERRRHSPGERGLGGPAPPEPDSGPQRCGIRTSDIIILPHIILNRRTSGIIEIEIKPLRKMEKSKSYYLCTSLSTPALGAGGSGSTGGAVGGKGGSGVAGLPPPPWAETTWIYHDGEDTKMIVGEEKKFLLPFWLQVIFISLLLCLSGMFSGLNLGLMALDPMELRIVQNCGTEKEKNYAKRIEPVRRQGNYLLCSLLLGNVLVNTTLTILLDDIAGSGLVAVVVSTIGIVIFGEIVPQAICSRHGLAVGANTIFLTKFFMMMTFPASYPVSKLLDCVLGQEIGTVYNREKLLEMLRVTDPYNDLVKEELNIIQGALELRTKTVEDVMTPLRDCFMITGEAILDFNTMSEIMESGYTRIPVFEGERSNIVDLLFVKDLAFVDPDDCTPLKTITKFYNHPLHFVFNDTKLDAMLEEFKKGKSHLAIVQRVNNEGEGDPFYEVLGIVTLEDVIEEIIKSEILDETDLYTDNRTKKKVAHRERKQDFSAFKQTDSEMKVKISPQLLLAMHRFLATEVEAFSPSQMSEKILLRLLKHPNVIQELKYDEKNKKAPEYYLYQRNKPVDYFVLILQGKVEVEAGKEGMKFEASAFSYYGVMALTASPVPLSLSRTFVVSRTELLAAGSPGENKSPPRPCGLNHSDSLSRSDRIDAVTPTLGSSNNQLNSSLLQVYIPDYSVRALSDLQFVKISRQQYQNALMASRMDKTPQSSDSENTKIELTLTELHDGLPDETANLLNEQNCVTHSKANHSLHNEGAI [CNNM2]	-0.386		51.1	0.346	-1.21	-1.62
MIGGLFIYNHKGEVLISRVYRDDIGRNAVDAFRVNVIHARQQVRSPVTNIARTSFFHVKRSNIWLAAVTKQNVNAAMVFEFLYKMCDVMAAYFGKISEENIKNNFVLIYELLDEILDFGYPQNSETGALKTFITQQGIKSQHQTKEEQSQITSQVTGQIGWRREGIKYRRNELFLDVLESVNLLMSPQGQVLSAHVSGRVVMKSYLSGMPECKFGMNDKIVIEKQGKGTADETSKSGKQSIAIDDCTFHQCVRLSKFDSERSISFIPPDGEFELMRYRTTKDIILPFRVIPLVREVGRTKLEVKVVIKSNFKPSLLAQKIEVRIPTPLNTSGVQVICMKGKAKYKASENAIVWKIKRMAGMKESQISAEIELLPTNDKKKWARPPISMNFEVPFAPSGLKVRYLKVFEPKLNYSDHDVIKWVRYIGRSGIYETRC [AP2M1]	-0.387	52.3	51.6	0.00223	-2.25	-0.263
